Measured values reported in PMC3799448 (Nucleic Acids Research, 2013).

B1: FITC-BRC4 peptide (BRC4 repeat of BRCA2) (peptide)
peptide: KEPTLLGFHTASGKKVKIAKESLDKVKNLFDEKEQ
modifications: FITC (fluorescein) on the N-terminus, as printed: FITC-KEPT...
B2: dT60 (poly(dT)-60) (ssDNA)
DNA: TTTTTTTTTTTTTTTTTTTTTTTTTTTTTTTTTTTTTTTTTTTTTTTTTTTTTTTTTTTT

Key:
[1] = target: T1, RAD51 (wild-type human RAD51 DNA strand exchange protein) (human, UniProt Q06609 1-339); assay: fluorescence polarisation
T1 sequence: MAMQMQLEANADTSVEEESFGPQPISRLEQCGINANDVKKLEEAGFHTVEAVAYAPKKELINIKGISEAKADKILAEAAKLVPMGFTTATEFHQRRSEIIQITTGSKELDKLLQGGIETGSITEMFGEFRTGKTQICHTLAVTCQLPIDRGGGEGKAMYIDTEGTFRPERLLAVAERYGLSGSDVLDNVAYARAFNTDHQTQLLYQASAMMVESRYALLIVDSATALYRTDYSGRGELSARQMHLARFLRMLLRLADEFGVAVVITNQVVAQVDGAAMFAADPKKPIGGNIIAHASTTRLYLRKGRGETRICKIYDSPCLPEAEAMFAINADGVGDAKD

[2] = target: RAD51 E59A (human, UniProt Q06609 1-339, E59A); assay: FRET
[3] = target: RAD51 E237A (human, UniProt Q06609 1-339, E237A); assay: FRET
[4] = target: RAD51 E42A (human, UniProt Q06609 1-339, E42A); assay: FRET
[5] = target: RAD51 wild type (human, UniProt Q06609 1-339); assay: FRET

Binder	Kd [1] [nM]	binding result [2]	binding result [3]	binding result [4]	binding result [5]
B1	34 ± 5				
B2		binds	binds	binds	binds
